Measurements from publication PMC11728977, “Crystallographic, kinetic, and calorimetric investigation of PKA interactions with L-type calcium channels and Rad GTPase” (The Journal of Biological Chemistry, 2024).

B1: Rad Ser25 peptide (peptide)
peptide: GAGRERDRRRGSTPW
notes: Rad GTPase N-terminal tail, residues 14-28 around Ser25; also called Rad S25 peptide; source: synthetic peptide
B2: Rad Ser272 peptide (peptide)
peptide: ARRQAGTRRRESLGK
notes: Rad GTPase C-terminal tail, residues 261-275 around Ser272; also called Rad S272 peptide; S272 peptide; source: synthetic peptide
B3: CaV1.2 Ser1981 peptide (peptide)
peptide: RGFLRSASLGRRASFHL
notes: human CaV1.2 (α1c subunit) C-terminal tail, residues 1968-1984 around the PKA site Ser1981; also called S1981 peptide; CaV1.2 S1981 peptide; source: synthetic peptide
B4: CaV1.2 Ser1981 peptide S1975R (peptide)
peptide: RGFLRSARLGRRASFHL
notes: also called S1975R peptide; S1981 (S1975R); source: synthetic peptide
B5: CaV1.2 Ser1981 peptide L1971A (peptide)
peptide: RGFARSASLGRRASFHL
notes: also called L1971A peptide; S1981 (L1971A); source: synthetic peptide
B6: CaV1.2 Ser1981 peptide F1982A (peptide)
peptide: RGFLRSASLGRRASAHL
notes: human CaV1.2 residues 1968-1984 with F1982A (P+1 position); also called F1982A peptide; S1981 (F1982A); source: synthetic peptide

Biological target: catalytic subunit of PKA, isoform alpha, residues 16-351 (PKAcα_(16-351)), preparation for ITC (mouse, UniProt P05132-1 16-351)
Experiment: ITC; peptide or substrate (1.25 to 4.3 mM) titrated into the cell containing PKAc (149 to 204 μM); 4 °C; 50 mM Hepes (pH 7.4), 150 mM KCl, 5 mM MgCl2, 2 mM TCEP; 0.5 mM AMP-PNP in both solutions
Settings: both partners purified

Row | Kd [µM] | dH [kJ/mol] | stoichiometry N | Binder
1 | 460 | -10.9 | 0.83 | B1
2 | 126 | -17 | 0.98 | B2
3 | 34 | 13 | 0.98 | B3
4 | 532 | 14 | 1.08 | B4
5 | 18 | 11 | 1.06 | B5
6 | 147 | 10.3 | 0.99 | B6
